Results from patent publication US20060040881.

Test system: Coagulation factor IX/IXa (Macaca fascicularis)
Experiment: inhibition
Conditions: guggaCUaUaCCgCgUaaUgCuGcCUccacT; lower case 2'-OMe, upper case C/U 2'-F, upper case A/G 2'-OH, 3' idT; concentration inhibiting about 90% of plasma FIX activity (APTT 1.6-fold); >95% at 10-12 ug/mL; cynomolgus plasma; text cites Apt39 as SEQ ID NO:88

Work on GUGGACUAUACCGCGUAAUGCUGCCUCCAC [Apt39] yielded an activity of 6 µg/mL.
